This passage reports EC50 results from patent publication US20210238275A1 (published 2021).

The term EC50 denotes the concentration at which the effect is half-maximal.

The assay addresses cell surface, glycophosphatidylinositol (GPI)-linked human FcRn on HEK 293 cells (human, UniProt P55899 24-297, C-terminal engineered GPI linkage). Put plainly: IgG competition on 293 cell surface; pH 6.0.

B1: N026 (antibody)
heavy: not shown
light: QSALTQPASVSGSPGQSITISCTGTGSDVGSYNLVSWYQQHPGKAPKLMIYGDSERPSGVSNRFSGSKSGNTASLTISGLQAEDEADYYCSSYAGSGIYVFGTGTKVTVLGQPKAAPSVTLFPPSSEELQANKATLVCLISDFYPGAVTVAWKADSSPVKAGVETTTPSKQSNNKYAASSYLSLTPEQWKSHKSYSCQVTHEGSTVEKTVAPTECS
Molecule B1 had an EC50 of 3.24 nM.

B2: N023 (antibody)
heavy: not shown
light: QSALTQPASVSGSPGQSITISCTGTGSDVGSYNLVSWYQQHPGKAPKLMIYGDSERPSGVSNRFSGSKSGNTASLTISGLQAEDEADYYCSSYAGSGIYVFGTGTKVTVLGQPKAAPSVTLFPPSSEELQANKATLVCLISDFYPGAVTVAWKADSSPVKAGVETTTPSKQSNNKYAASSYLSLTPEQWKSHKSYSCQVTHEGSTVEKTVAPTECS
B2 registered an EC50 of 2.48 nM.

B3: N022 (antibody)
heavy: not shown
light: QSALTQPASVSGSPGQSITISCTGTGSDVGSYNLVSWYQQHPGKAPKLMIYGDSERPSGVSNRFSGSKSGNTASLTISGLQAEDEADYYCSSYAGSGIYVFGTGTKVTVLGQPKAAPSVTLFPPSSEELQANKATLVCLISDFYPGAVTVAWKADSSPVKAGVETTTPSKQSNNKYAASSYLSLTPEQWKSHKSYSCQVTHEGSTVEKTVAPTECS
B3 registered a concentration for a half-maximal effect (EC50) of 2.93 nM. The EC50 values of the last two molecules are within 1.5-fold of each other.

B4: N027 (antibody)
heavy: not shown
light: QSALTQPASVSGSPGQSITISCTGTGSDVGSYNLVSWYQQHPGKAPKLMIYGDSERPSGVSNRFSGSKSGNTASLTISGLQAEDEADYYCSSYAGSGIYVFGTGTKVTVLGQPKAAPSVTLFPPSSEELQANKATLVCLISDFYPGAVTVAWKADSSPVKAGVETTTPSKQSNNKYAASSYLSLTPEQWKSHKSYSCQVTHEGSTVEKTVAPTECS
B4 registered an EC50 of 3.25 nM.

B5: N024 (antibody)
heavy: not shown
light: QSALTQPASVSGSPGQSITISCTGTGSDVGSYNLVSWYQQHPGKAPKLMIYGDSERPSGVSNRFSGSKSGNTASLTISGLQAEDEADYYCSSYAGSGIYVFGTGTKVTVLGQPKAAPSVTLFPPSSEELQANKATLVCLISDFYPGAVTVAWKADSSPVKAGVETTTPSKQSNNKYAASSYLSLTPEQWKSHKSYSCQVTHEGSTVEKTVAPTECS
B5 yielded an EC50 of 2.48 nM.
